Measured values published in the Human Domainome abundance scans (Beltran et al. 2025).
± gives the uncertainty stated by the source.

B1: Zinc finger homeobox protein 4, residues 2086 to 2141; numbered along this chain, Q86UP3 (parent)
chain: RPRTRITDDQLKILRAYFDINNSPSEEQIQEMAEKSGLSQKVIKHWFRNTLFKERQ

Variants of: B1
Test: abundance fitness (aPCA) (normalised: wild type 0, dead -1); higher = more abundant; growth selection in yeast, the domain comes from the species named
Conditions: Homo sapiens

RPRTRITDDQLKILRAYFDINSSPSEEQIQEMAEKSGLSQKVIKHWFRNTLFKERQ [N22S] and RPRTRITDDQLKILRAYFDINVSPSEEQIQEMAEKSGLSQKVIKHWFRNTLFKERQ [N22V] are within error of each other in abundance fitness: 0.281 ± 0.23 for the first, 0.05 ± 0.45 for the second.

RPRTRITDDQLKILRAYFDINDSPSEEQIQEMAEKSGLSQKVIKHWFRNTLFKERQ [N22D] and RPRTRITDDQLKILRAYFDINRSPSEEQIQEMAEKSGLSQKVIKHWFRNTLFKERQ [N22R] are within error of each other in abundance fitness: -0.182 ± 0.25 for the first, 0.071 ± 0.2 for the second.

RPRTRITDDQLKILRAYFDINGSPSEEQIQEMAEKSGLSQKVIKHWFRNTLFKERQ [N22G] and RPRTRITDDQLKILRAYFDINISPSEEQIQEMAEKSGLSQKVIKHWFRNTLFKERQ [N22I] are within error of each other in abundance fitness: 0.014 ± 0.27 for the first, 0.204 ± 0.33 for the second.

RPRTRITDDQLKILRAYFDINPSPSEEQIQEMAEKSGLSQKVIKHWFRNTLFKERQ [N22P] and RPRTRITDDQLKILRAYFDINCSPSEEQIQEMAEKSGLSQKVIKHWFRNTLFKERQ [N22C] are within error of each other in abundance fitness: 0.201 ± 0.24 for the first, -0.178 ± 0.29 for the second.

RPRTRITDDQLKILRAYFDINHSPSEEQIQEMAEKSGLSQKVIKHWFRNTLFKERQ [N22H] and RPRTRITDDQLKILRAYFDINNSCSEEQIQEMAEKSGLSQKVIKHWFRNTLFKERQ [P24C] are within error of each other in abundance fitness: -0.359 ± 0.23 for the first, -0.462 ± 0.12 for the second.

First: RPRTRITDDQLKILRAYFDINNSESEEQIQEMAEKSGLSQKVIKHWFRNTLFKERQ [P24E]
Second: RPRTRITDDQLKILRAYFDINNSGSEEQIQEMAEKSGLSQKVIKHWFRNTLFKERQ [P24G]
The abundance fitness of the first is higher: -0.326 ± 0.18 for the first, -0.793 ± 0.14 for the second.

First: RPRTRITDDQLKILRAYFDINNSASEEQIQEMAEKSGLSQKVIKHWFRNTLFKERQ [P24A]
Second: RPRTRITDDQLKILRAYFDINNSDSEEQIQEMAEKSGLSQKVIKHWFRNTLFKERQ [P24D]
The abundance fitness of the first is higher: -0.294 ± 0.08 for the first, -0.844 ± 0.14 for the second.

Going from RPRTRITDDQLKILRAYFDINNSFSEEQIQEMAEKSGLSQKVIKHWFRNTLFKERQ [P24F] to RPRTRITDDQLKILRAYFDIMNSPSEEQIQEMAEKSGLSQKVIKHWFRNTLFKERQ [N21M], the abundance fitness rises from -0.538 ± 0.098 to 0.203 ± 0.18.

RPRTRITDDQLKILRAYFDIQNSPSEEQIQEMAEKSGLSQKVIKHWFRNTLFKERQ [N21Q] and RPRTRITDDQLKILRAYFDIKNSPSEEQIQEMAEKSGLSQKVIKHWFRNTLFKERQ [N21K] are within error of each other in abundance fitness: -0.247 ± 0.17 for the first, -0.187 ± 0.17 for the second.

RPRTRITDDQLKILRAYFDIINSPSEEQIQEMAEKSGLSQKVIKHWFRNTLFKERQ [N21I] and RPRTRITDDQLKILRAYFDIHNSPSEEQIQEMAEKSGLSQKVIKHWFRNTLFKERQ [N21H] are within error of each other in abundance fitness: -0.114 ± 0.12 for the first, -0.117 ± 0.095 for the second.

RPRTRITDDQLKILRAYFDIYNSPSEEQIQEMAEKSGLSQKVIKHWFRNTLFKERQ [N21Y] and RPRTRITDDQLKILRAYFDITNSPSEEQIQEMAEKSGLSQKVIKHWFRNTLFKERQ [N21T] are within error of each other in abundance fitness: -0.156 ± 0.11 for the first, 0.009 ± 0.089 for the second.

RPRTRITDDQLKILRAYFDILNSPSEEQIQEMAEKSGLSQKVIKHWFRNTLFKERQ [N21L] and RPRTRITDDQLKILRAYFDISNSPSEEQIQEMAEKSGLSQKVIKHWFRNTLFKERQ [N21S] are within error of each other in abundance fitness: -0.101 ± 0.091 for the first, -0.048 ± 0.083 for the second.

Going from RPRTRITDDQLKILRAYFDIPNSPSEEQIQEMAEKSGLSQKVIKHWFRNTLFKERQ [N21P] to RPRTRITDDQLKILRAYFDIGNSPSEEQIQEMAEKSGLSQKVIKHWFRNTLFKERQ [N21G], the abundance fitness rises from -0.494 ± 0.097 to -0.261 ± 0.11.

RPRTRITDDQLKILRAYFDIWNSPSEEQIQEMAEKSGLSQKVIKHWFRNTLFKERQ [N21W] and RPRTRITDDQLKILRAYFDIENSPSEEQIQEMAEKSGLSQKVIKHWFRNTLFKERQ [N21E] are within error of each other in abundance fitness: -0.111 ± 0.18 for the first, 0.122 ± 0.26 for the second.

RPRTRITDDQLKILRAYFDIVNSPSEEQIQEMAEKSGLSQKVIKHWFRNTLFKERQ [N21V] and RPRTRITDDQLKILRAYFDIFNSPSEEQIQEMAEKSGLSQKVIKHWFRNTLFKERQ [N21F] are within error of each other in abundance fitness: -0.189 ± 0.12 for the first, -0.191 ± 0.12 for the second.

RPRTRITDDQLKILRAYFDINNMPSEEQIQEMAEKSGLSQKVIKHWFRNTLFKERQ [S23M] and RPRTRITDDQLKILRAYFDINNRPSEEQIQEMAEKSGLSQKVIKHWFRNTLFKERQ [S23R] are within error of each other in abundance fitness: -0.019 ± 0.14 for the first, -0.127 ± 0.08 for the second.

RPRTRITDDQLKILRAYFDINNWPSEEQIQEMAEKSGLSQKVIKHWFRNTLFKERQ [S23W] and RPRTRITDDQLKILRAYFDINNTPSEEQIQEMAEKSGLSQKVIKHWFRNTLFKERQ [S23T] are within error of each other in abundance fitness: -0.176 ± 0.093 for the first, -0.071 ± 0.13 for the second.

Going from RPRTRITDDQLKILRAYFDINNHPSEEQIQEMAEKSGLSQKVIKHWFRNTLFKERQ [S23H] to RPRTRITDDQLKILRAYFDINNDPSEEQIQEMAEKSGLSQKVIKHWFRNTLFKERQ [S23D], the abundance fitness falls from 0.187 ± 0.15 to -0.131 ± 0.12.

First: RPRTRITDDQLKILRAYFDINNAPSEEQIQEMAEKSGLSQKVIKHWFRNTLFKERQ [S23A]
Second: RPRTRITDDQLKILRAYFDINNGPSEEQIQEMAEKSGLSQKVIKHWFRNTLFKERQ [S23G]
The abundance fitness of the first is higher: 0.041 ± 0.08 for the first, -0.211 ± 0.067 for the second.

RPRTRITDDQLKILRAYFDINNVPSEEQIQEMAEKSGLSQKVIKHWFRNTLFKERQ [S23V] and RPRTRITDDQLKILRAYFDINNCPSEEQIQEMAEKSGLSQKVIKHWFRNTLFKERQ [S23C] are within error of each other in abundance fitness: -0.052 ± 0.072 for the first, -0.004 ± 0.1 for the second.

RPRTRITDDQLKILRAYFDINNPPSEEQIQEMAEKSGLSQKVIKHWFRNTLFKERQ [S23P] and RPRTRITDDQLKILRAYFDINNLPSEEQIQEMAEKSGLSQKVIKHWFRNTLFKERQ [S23L] are within error of each other in abundance fitness: -0.003 ± 0.11 for the first, -0.07 ± 0.09 for the second.

RPRTRITDDQLKILRAYFDINNNPSEEQIQEMAEKSGLSQKVIKHWFRNTLFKERQ [S23N] and RPRTRITDDQLKILRAYFDINNKPSEEQIQEMAEKSGLSQKVIKHWFRNTLFKERQ [S23K] are within error of each other in abundance fitness: -0.004 ± 0.18 for the first, -0.009 ± 0.13 for the second.

RPRTRITDDQLKILRAYFDINNEPSEEQIQEMAEKSGLSQKVIKHWFRNTLFKERQ [S23E] and RPRTRITDDQLKILRAYFDINNQPSEEQIQEMAEKSGLSQKVIKHWFRNTLFKERQ [S23Q] are within error of each other in abundance fitness: 0.089 ± 0.11 for the first, -0.011 ± 0.18 for the second.

In the case of RPRTRITDDQLKILRAYFDINNIPSEEQIQEMAEKSGLSQKVIKHWFRNTLFKERQ [S23I], the abundance fitness is reported as -0.522 ± 0.16.
